B3: CpfC (protein)
chain: MTKKMGLLVMAYGTPYKESDIEPYYTDIRHGKRPSEEELQDLKDRYEFIGGLSPLAGTTDDQADALVSALNKAYADVEFKLYLGLKHISPFIEDAVEQMHNDGITEAITVVLAPHYSSFSVGSYDKRADEEAAKYGIQLTHVKHYYEQPKFIEYWTNKVNETLAQIPEEEHKDTVLVVSAHSLPKGLIEKNNDPYPQELEHTALLIKEQSNIEHIAIGWQSEGNTGTPWLGPDVQDLTRDLYEKHQYKNFIYTPVGFVCEHLEVLYDNDYECKVVCDDIGANYYRPKMPNTHPLFIGAIIDEIKSIF

Key:
[1] = target: T1, ChdC (SaChdC; coproheme decarboxylase) (Staphylococcus aureus, UniProt A6QEP0); experiment: tryptophan fluorescence quenching; assay type: binding; details: 50 mM Tris pH 8, 150 mM NaCl, 25 °C; Langmuir-Hill fit
T1 sequence (A6QEP0 1-250): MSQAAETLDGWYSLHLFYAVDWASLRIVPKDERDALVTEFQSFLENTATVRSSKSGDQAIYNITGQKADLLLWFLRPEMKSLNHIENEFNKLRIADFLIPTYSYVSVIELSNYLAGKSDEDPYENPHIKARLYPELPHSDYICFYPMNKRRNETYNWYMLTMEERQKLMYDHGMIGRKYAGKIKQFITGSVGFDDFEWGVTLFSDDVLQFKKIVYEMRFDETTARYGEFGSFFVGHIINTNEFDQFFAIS

[2] = target: T2, CpfC (coproporphyrin ferrochelatase; HemH) (Staphylococcus aureus, UniProt P64125); experiment: tryptophan fluorescence quenching; assay type: binding; details: 50 mM Tris pH 8, 150 mM NaCl, 25 °C
T2 sequence (P64125 1-307): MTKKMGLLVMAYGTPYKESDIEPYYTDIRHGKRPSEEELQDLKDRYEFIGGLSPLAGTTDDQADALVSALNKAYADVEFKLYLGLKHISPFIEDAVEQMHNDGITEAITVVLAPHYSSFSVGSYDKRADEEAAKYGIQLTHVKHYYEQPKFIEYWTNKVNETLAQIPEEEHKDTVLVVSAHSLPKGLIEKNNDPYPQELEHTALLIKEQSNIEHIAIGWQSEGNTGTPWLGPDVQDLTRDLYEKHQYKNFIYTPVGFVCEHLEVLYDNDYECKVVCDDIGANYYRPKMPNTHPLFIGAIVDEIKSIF

CpfC = target: B3; experiment: UV-vis titration
ChdC [3] = target: T3, ChdC (Staphylococcus aureus, UniProt Q2FJ56); experiment: UV-vis titration
T3 chain: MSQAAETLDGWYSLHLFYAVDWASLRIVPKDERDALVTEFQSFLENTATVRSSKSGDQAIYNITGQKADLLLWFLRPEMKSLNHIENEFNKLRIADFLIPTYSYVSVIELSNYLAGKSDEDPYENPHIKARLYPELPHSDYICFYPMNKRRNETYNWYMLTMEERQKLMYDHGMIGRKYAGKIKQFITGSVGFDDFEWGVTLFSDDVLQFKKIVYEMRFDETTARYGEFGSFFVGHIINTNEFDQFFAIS

ChdC [4] = target: T3, ChdC; experiment: UV-vis titration and fluorescence quenching

CC1=C(CCC(=O)O)c2cc3nc(cc4[nH]c(cc5[nH]c(cc1n2)c(C)c5CCC(=O)O)c(CCC(=O)O)c4C)C(CCC(=O)O)=C3C [coproporphyrin]
KD [1]: ChdC binds coproporphyrin with an affinity that resembles that for coproheme
KD [2]: affinities of CpfC and/or ChdC for coproporphyrin and/or coproheme were measured titrimetrically

B1: ChdC (protein)
chain: MSQAAETLDGWYSLHLFYAVDWASLRIVPKDERDALVTEFQSFLENTATVRSSKSGDQAIYNITGQKADLLLWFLRPEMKSLNHIENEFNKLRIADFLIPTYSYVSVIELSNYLAGKSDEDPYENPHIKARLYPELPHSDYICFYPMNKRRNETYNWYMLTMEERQKLMYDHGMIGRKYAGKIKQFITGSVGFDDFEWGVTLFSDDVLQFKKIVYEMRFDETTARYGEFGSFFVGHIINTNEFDQFFAIS
modifications: coproporphyrin III bound to ChdC
Kd (CpfC): 40 µM

B2: CpfC (protein)
chain: MTKKMGLLVMAYGTPYKESDIEPYYTDIRHGKRPSEEELQDLKDRYEFIGGLSPLAGTTDDQADALVSALNKAYADVEFKLYLGLKHISPFIEDAVEQMHNDGITEAITVVLAPHYSSFSVGSYDKRADEEAAKYGIQLTHVKHYYEQPKFIEYWTNKVNETLAQIPEEEHKDTVLVVSAHSLPKGLIEKNNDPYPQELEHTALLIKEQSNIEHIAIGWQSEGNTGTPWLGPDVQDLTRDLYEKHQYKNFIYTPVGFVCEHLEVLYDNDYECKVVCDDIGANYYRPKMPNTHPLFIGAIIDEIKSIF
modifications: coproporphyrin III bound to CpfC
Kd (ChdC [3]): 80 µM

B3
Kd (ChdC [4]): 17 µM

From publication PMC7160669 (Biochemistry, 2019)
